From patent US20050079613A1, “Downregulation of cell surface glycoproteins by a family of human ubiquitin ligases” (Oregon Health & Science University, priority 2002, published 2005)

Tests used:
[1] = test system: ubiquitin; test: In vitro ubiquitination assay with GST-fused RING-CH (PHD) domains, E1, E2 panel, anti-ubiquitin immunoblot; format: biochemical; settings: E2 = UbCH2
Protocol: Ubiquitination assay. UbCH2 and UbCH3 were obtained from Boston Biochem. (His)6-UbCH5a and GST fusion proteins were expressed in BL21-DE3 cells (Stratagene) and BL21 cells (Amersham), respectively, and purified as previously described (Boutell, C., S. Sadis and R. D. Everett, J. Virol. 76:841-850, 2002; Tiwari, S. and A. M. Weissman, J. Biol. Chem. 276:16193-16200, 2001). Purified E3 proteins were stored at 4° C., and E2 proteins were stored at −80° C. In vitro reaction mixtures (20 μl total) included: 50 nM rabbit E1 (Boston Biochem), 28 μM Ubiquitin, 5 mM ATP, 50 mM Tris-HCl pH 7.5, 50 mM NaCl, and 2 mM DTT. E2 enzymes were used at concentrations varying from 0.1 to 2.3 μM, and E3 concentrations ranged from 3 to 30 μM. After 90 minutes of incubation at 30° C., reactions were stopped by boiling in SDS sample buffer. Samples were electrophoresed through 12% polyacrylamide SDS gels and blotted using anti-ubiquitin mouse antibody, P4D1 (Santa Cruz Biotech).
In vitro reaction mixtures (20 μl total) included: 50 nM rabbit E1 (Boston Biochem), 28 μM Ubiquitin, 10 mM ATP, 50 mM Tris-HCl pH 7.5, 50 mM NaCl, and 2 mM DTT. E2 enzymes were used at concentrations varying from 0.7 to 2.3 μM, and E3 concentrations ranged from 3 to 25 μM. After 90 minutes of incubation at 30° C., reactions were stopped by addition of 4×reducing sample buffer. Samples were electrophoresed through 12% SDS gels and blotted using anti-ubiquitin mouse antibody (Santa Cruz Biotech).
To examine if the RING-CH domains of MARCH-I and MARCH-II would act as ubiquitin ligases in vitro, DNA fragments encoding the amino-terminal RING-CH-domain of both proteins were fused to Glutathione-S-transferase. The resulting constructs were sequence confirmed and expression of GST-MARCH protein verified by immunoblot. The GST-fusion protein was expressed and purified from E. coli cultures using Glutathione-columns. The ICP0-RING-domain was also purified, in parallel with the MARCH-I and MARCH-II constructs. A panel of E2 enzymes was either purchased from commercial sources or purified either by nickel-chelate chromatography or on glutathione columns. All E2-enzymes formed mercapto-ethanol-sensisitve complexes with ubiquitin thus showing ubiquitin conjugating activity. Purified ubiquitin and E1 was obtained from commercial sources.
To examine if the RING-CH domains of MARCH proteins act as ubiquitin ligases in vitro, a DNA fragment encoding the amino-terminal RING-CH-domains of MARCH-I, II, IV and VIII were fused to Glutathione-S-transferase (GST) for bacterial expression. The GST-fusion proteins were purified from E. coli cultures using Glutathione-sepharose-columns. Approximately thirty E2 proteins are found in the human genome compared to only one E1 enzyme (Pickart, 2001, supra). […] The specificity and selectivity of E3s with respect to E2s, however, is not well characterized. To cover a spectrum of E2s, a panel of E2 enzymes (Mansouri et al., 2003, supra) was acquired. The various E2 enzymes were incubated with or without the RING-CH-GST fusions in the presence of ubiquitin, ATP, E1. The formation of multiubiquitin-adducts was examined by immunoblotting with antibodies against ubiquitin.

[2] = test system: HLA class I (MHC I); test: Surface expression of endogenous MHC I on transfected HeLa cells, flow cytometry; format: cell-based, human
Protocol: Flow cytometry. Cells were removed from tissue culture dishes with 0.05% Trypsin-EDTA (Invitrogen), washed with ice-cold PBS, and incubated with appropriate antibody for 30 minutes at 4° C. The cells were washed with ice-cold PBS and either resuspended in ice-cold PBS or incubated with PE-conjugated anti-mouse secondary antibody (DAKO) and washed again before analysis with a BD Biosciences (San Jose, Calif.) FACScalibur flow cytometer.
The ability to downregulate MHC I is common to KSHV-K3, KSHV-K5, MHV68-K3 and MV-M153R (Coscoy and Ganem, 2000, supra; Guerin et al., 2002, supra; Ishido et al., 2000b supra; Stevenson et al., 2000, supra). Additional substrates are ICAM-1 and B7.2 (but not B7.1) for KSHV-K5, as well as CD95 and CD4 for M153R (Coscoy and Ganem, 2001, supra; Guerin et al., 2002, supra; Ishido et al., 2000a, supra; Mansouri et al., 2003, supra). Since only low copy numbers were detected in HeLa cells for transcripts corresponding to each of the MARCH-proteins (FIG. 7C, and data not shown), HeLa cells were transfected with expression plasmids for MARCH-I, II, III, IV, V and VIII. Surface expression of selected glycoproteins was monitored upon transfection. The following known substrates for viral K3-family members were tested: Fas (CD95) and HLA class I (MHC I), both of which are endogenously expressed in HeLa cells, as well as transfected HLA-A2.1 or CD4. […] Surface expression of the respective markers was analyzed by flow cytometry. GFP was used to identify transfected cells.
With regards to whether MHC I downregulation by MARCH-IV was only observed at very high expression levels, since the viral immune evasion genes seem to be dedicated to MHC I downregulation, MHC I expression was compared at different expression levels of MARCH-IV or KSHV-K5 by taking advantage of the tetracycline-regulatable system to partially express either protein (Gossen, M. and H. Bujard, Proc. Natl. Acad. Sci. USA 89:5547-5551, 1992). Tet-off HeLa cells were transfected with either MARCH-IV or with KSHV-K5 in the presence of increasing amounts of tetracycline to shut off transcription. […]

B1: MARCH-IV: human membrane-associated RING-CH ubiquitin ligase, SEQ ID NOS:45 and 57; construct used lacks the first 63 amino-acids (protein)
chain: WYCYGLCAPAPQMLRHQGLLKCRCRMLFNDLKVFLLRRPPQAPLPMHGDPQPPGLAANNTLPALGAGGWAGWRGPREVVGREPPPVPPPPPLPPSSVEDDWGGPATEPPASLLSSASSDDFCKEKTEDRYSLGSSLDSGMRTPLCRICFQGPEQGELLSPCRCDGSVKCTHQPCLIKWISERGCWSCELCYYKYHVIAISTKNPLQWQAISLTVIEKVQVAAAILGSLFLIASISWLIWSTFSPSARWQRQDLLFQICYGMYGFMDVVCIGLIIHEGPSVYRIFKRWQAVNQQWKVLNYDKTKDLEDQKAGGRTNPRTSSSTQANIPSSEEETAGTPAPEQGPAQAAGHPSGPLSHHHCAYTILHILSHLRPHEQRSPPGSSRELVMRVTTV
[1]
  ubiquitin ligase activity with UbCH2: mostly active
[2]; HeLa cells transfected with MARCH plasmid and GFP, 24 h post-transfection
  surface expression of MHC I: significantly downregulated
[2]; Tet-off HeLa cells, increasing amounts of tetracycline, below the detectable level of RING-CH protein expression
  MHC I downregulation at tetracycline-regulated expression levels: partial MHC I downregulation
